Target: the molecule itself
Assay: solution structural model from NMR PRE distance restraints and SANS (M3 data-driven docking with HADDOCK); 145 PRE-derived distance restraints and six SANS curves; building blocks PDB 2hue and MD conformers of PDB 3q66; 33 structures, pairwise backbone RMSD 2.0 A; 50 mM citrate pH 6.5, 150 mM NaCl, 298 K

B1: Vps75 (vacuolar protein sorting-associated protein 75) homodimer (natural protein, S. cerevisiae, UniProt P53853 1-264, looked up)
chain: MMSDQENENEHAKAFLGLAKCEEEVDAIEREVELYRLNKMKPVYEKRDAYIDEIAEFWKIVLSQHVSFANYIRASDFKYIDTIDKIKVEWLALESEMYDTRDFSITFHFHGIEGDFKEQQVTKVFQIKKGKDDQEDGILTSEPVPIEWPQSYDSINPDLIKDKRSPEGKKKYRQGMKTIFGWFRWTGLKPGKEFPHGDSLASLFSEEIYPFCVKYYAEAQRDLEDEEGESGLSADGDSEDDDGSLGEVDLPLSDEEPSSKKRKV
notes: Vps75, S. cerevisiae, full length; the C-terminal acidic domain (CTAD) is 226-264; isotope-labelled (ILV methyl, 15N, 2H) in some samples; also called Vps75_(2); ScVps75; source: E. coli BL21(DE3), purified (IMAC, TEV cleavage, ion exchange, SEC); not shown: His6, N-terminal, cleaved
stoichiometry N: 2 subunits
